In patent US20250188189A1 (published 2025):
Numbering of substitutions follows the chain as printed.

How the values were obtained:
[1] = target: T1, plasma-derived human activated protein C (APC) (UniProt P04070 43-461); experiment: SPR
T1 chain: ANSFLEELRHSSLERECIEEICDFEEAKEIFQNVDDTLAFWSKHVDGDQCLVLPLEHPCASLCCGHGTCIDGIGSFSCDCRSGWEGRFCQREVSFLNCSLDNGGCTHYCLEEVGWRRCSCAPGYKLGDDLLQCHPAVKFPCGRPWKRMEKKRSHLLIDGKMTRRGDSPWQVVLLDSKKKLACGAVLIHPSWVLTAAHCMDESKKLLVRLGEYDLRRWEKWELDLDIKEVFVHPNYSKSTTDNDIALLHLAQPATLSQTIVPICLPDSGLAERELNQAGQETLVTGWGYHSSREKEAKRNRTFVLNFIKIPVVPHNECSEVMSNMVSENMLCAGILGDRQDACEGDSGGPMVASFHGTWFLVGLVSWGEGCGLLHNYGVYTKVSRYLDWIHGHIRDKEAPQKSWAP

[2] = target: T1, plasma-derived human activated protein …; experiment: SPR
[3] = target: T1, plasma-derived human activated protein …; experiment: SPR
[4] = target: T1, plasma-derived human activated protein …; experiment: SPR; head prints nM; kd/ka gives M
TPP-29862 = experiment: SPR; head prints nM; kd/ka gives M

B1: TPP-24738 (antibody, V domains shown)
VH: EVQLVESGGGLVQPGGSLRLSCAASGFTFSNYYMNWVRQAPGKGLEWVGRIKSKTDGGTTDYAAPVKGRFTISRDDSKNSLYLQMNSLKTEDTAVYYCAREGDYFDYWGQGTLVTVSS
With B1 the Kd [1] was 1.81 nM.

B2: TPP-24740 (antibody, V domains shown)
VH: EVQLVESGGGLVQPGGSLRLSCAASGFTFSNYYMSWVRQAPGKGLEWVGDIRLKSNNYEKHYAESVKGRFTISRDDSKNSLYLQMNSLKTEDTAVYYCAREGDYFDYWGQGTLVTVSS
With B2 the Kd [1] was 60.5 nM.

B3: TPP-24744 (antibody, V domains shown)
VH: B2 VH with M34I, S35N
Binder B3 has a Kd [1] of 22.8 nM.

B4: TPP-24727 (antibody, V domains shown)
VH: B2 VH with M34L, S35N
VL: DIVLTQSPASLAVSPGQRATITCKASESVDSFGATFMHWYQQKPGQPPKLLIYLASNLESGVPARFSGSGSGTDFTLTINPVEADDTANYYCQQNNEDPYTFGQGTKLEIKR
B4 gave a Kd [2] of 18.7 nM, a Kd [1] of 44.8 nM and a Kd [3] of 44.8 nM.

B5: TPP-26870 (antibody, V domains shown)
VH: EVQLVESGGGLVQPGGSLRLSCAASGFTFSNYYMNWVRQAPGKGLEWVSYISSSSSTIYYADSVKGRFTISRDDSKNSLYLQMNSLKTEDTAVYYCAREGDYFDYWGQGTLVTVSS
VL: EIVLTQSPGTLSLSPGERATLSCRASQSVSSFGATFMHWYQQKPGQPPKLLIYLASNRASGVPDRFSGSGSGTDFTLKISRVEAEDVGVYYCQQNNEDPYTFGQGTKLEIKR
With B5 the Kd [4] was 40 nM and the Kd [2] was 12.9 nM.

B6: TPP-24750 (antibody, V domains shown)
VH: B1 VH with M34I, N35S
In the case of B6, the Kd [1] is reported as 13200 nM.

B7: TPP-24739 (antibody, V domains shown)
VH: EVQLVESGGGLVQPGGSLRLSCAASGFTFSNYYMNWVRQAPGQGLEWMGRIIPILGIANYAQKFQGRFTISRDDSKNSLYLQMNSLKTEDTAVYYCAREGDYFDYWGQGTLVTVSS
B7 showed a Kd [1] of 0.737 nM.

B8: TPP-24745 (antibody, V domains shown)
VH: B5 VH with M34I
For B8, the Kd [1] was 76.4 nM.

B9: hAPC (enzyme)
chain: T1 chain
B9 showed a Kd (TPP-29862) of 11 nM.

B10: TPP-24737 (antibody, V domains shown)
VH: B5 VH
In the case of B10, the Kd [1] is reported as 12.5 nM.

B11: TPP-24766 (antibody, V domains shown)
VH: B1 VH with Y32A, N35S
Work on B11 yielded a Kd [1] of 29700 nM.

B12: TPP-24743 (antibody, V domains shown)
VH: B7 VH with N35S
Work on B12 yielded a Kd [1] of 0.174 nM.

B13: TPP-24777 (antibody, V domains shown)
VH: B5 VH with N31S, M34L
For B13, the Kd [1] was 31.4 nM.
